One test has as its target HLA-A*03:01 (Homo sapiens, UniProt P04439). The experiment in a line: MHC binding assay (UV-ligand exchange, beta2m ELISA). As to conditions: peptide exchange yield. The gist of the method:
(§1)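 Peptide–MHC complexes formed by UV-induced exchange of a UV-cleavable peptide for the test peptide. Exchange yield measured by streptavidin-capture ELISA detecting β2m (HRP anti-β2m, TMB, A450) on 100-fold diluted samples. Quantified against refolded HLA-A*02:01/MLA-001 standards (15-500 ng/ml).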
In general terms: ELISA stands for enzyme-linked immunosorbent assay.

A further test deals with HLA-B*44:02 (Homo sapiens, UniProt P01889, A223V/A65T/A93T/A95T/D201E/D98Y/E176V/E187L/E204Q/E69K/G107R/H137Y/K202T/L105A/L119I/N104T/N87E/Q56L/Q94N/R106L/R155S/R180D/S101N/S121R/S35A/S48T/T118I/V36M/W191S/Y140D/Y91S). The description is as above. Conditions: peptide exchange yield. The essentials: as §1

For 70 substances, Peptide exchange results are on record in patent US20210340217A1, “NOVEL PEPTIDES AND COMBINATION OF PEPTIDES FOR USE IN IMMUNOTHERAPY AGAINST OVARIAN CANCER AND OTHER CANCERS” (Immatics Biotechnologies GmbH, priority 2017, published 2021).

For the substance “269 (RLKGDAWVYK; listed as Homo sapiens) [compound 269]”, in the test with HLA-A*03:01, the Peptide exchange entry is recorded as “+++ (>50 = +++)”.

As to “30 (ALEVAHRLK; listed as Homo sapiens) [compound 30]”, in the test with HLA-A*03:01, the Peptide exchange result is on record as “++ (>20% = ++)”. The same measure, in the same setting: next, “106 (AAFVPLLLK; listed as Homo sapiens) [compound 106]”: “++ (>20% = ++)”.

As for “283 (IVQEPTEEK; listed as Homo sapiens) [compound 283]”, the Peptide exchange entry in the test with HLA-A*03:01 is “++ (>20% = ++)”. As to “28 (KTYETNLEIKK; listed as Homo sapiens) [compound 28]”, the Peptide exchange result in the test with HLA-A*03:01 is “+++ (>50 = +++)”. As to “280 (SVSGVKTTF; listed as Homo sapiens) [compound 280]”, in the test with HLA-A*03:01, the Peptide exchange result is on record as “++ (>20% = ++)”. The same measure, in the same setting: under “287 (RRIHTGEKPYK; listed as Homo sapiens) [compound 287]” stands “++ (>20% = ++)”. Still for that read-out and setting: under “99 (KVVDRWNEK; listed as Homo sapiens) [compound 99]” stands “++ (>20% = ++)”; under “257 (VTADHSHVF; listed as Homo sapiens) [compound 257]”, “+ (>10% = +)”; under “267 (VTDLISPRK; listed as Homo sapiens) [compound 267]”, “++ (>20% = ++)”. On the same count and under the same terms, next, “94 (ATFERVLLR; listed as Homo sapiens) [compound 94]”: “+++ (>50 = +++)”. As to “90 (KVAGERYVYK; listed as Homo sapiens) [compound 90]”, the Peptide exchange result with HLA-A*03:01 was “+++ (>50 = +++)”. Still for that read-out and setting: under “100 (RLFTSPIMTK; listed as Homo sapiens) [compound 100]” stands “+++ (>50 = +++)”; under “98 (LLQPPPLLAR; listed as Homo sapiens) [compound 98]”, “++ (>20% = ++)”; under “264 (AIKVIPTVFK; listed as Homo sapiens) [compound 264]”, “++ (>20% = ++)”.

For “265 (QIHDHVNPK; listed as Homo sapiens) [compound 265]”, the Peptide exchange result in the test with HLA-A*03:01 is on record as “++ (>20% = ++)”.

For the substance “402 (RELANDELIL; listed as Homo sapiens) [compound 402]”, the Peptide exchange result in the test with HLA-B*44:02 is ““++” (>20% = ++)”. Same read-out and setting: under “421 (GEPATTVSL; listed as Homo sapiens) [compound 421]” stands ““++” (>20% = ++)”; under “418 (FEDAQGHIW; listed as Homo sapiens) [compound 418]”, ““+++” (>50 = +++)”; under “184 (AELEALTDLW; listed as Homo sapiens) [compound 184]”, ““+++” (>50 = +++)”. On the same count and under the same terms, next, “425 (SEVPLPMAI; listed as Homo sapiens) [compound 425]”: ““+++” (>50 = +++)”. Same read-out and setting: next, “208 (TEVSRTEAI; listed as Homo sapiens) [compound 208]”: ““++” (>20% = ++)”; “407 (AEHEGVSVL; listed as Homo sapiens) [compound 407]”: ““++” (>20% = ++)”; “434 (KEAIREHQM; listed as Homo sapiens) [compound 434]”: ““++” (>20% = ++)”. With “56 (SEPDTTASW; listed as Homo sapiens) [compound 56]”, the Peptide exchange result with HLA-B*44:02 is given as ““+++” (>50 = +++)”. The same measure, in the same setting: under “400 (GEIEIHLL; listed as Homo sapiens) [compound 400]” stands ““+” (>10% = +)”; under “426 (PEKTTHSF; listed as Homo sapiens) [compound 426]”, ““+” (>10% = +)”; under “53 (MEHPGKLLF; listed as Homo sapiens) [compound 53]”, ““+++” (>50 = +++)”. Same read-out and setting: under “404 (NEAIMHQY; listed as Homo sapiens) [compound 404]” stands ““++” (>20% = ++)”; under “214 (VEQTRAGSLL; listed as Homo sapiens) [compound 214]”, ““++” (>20% = ++)”.

As for “175 (AEIEPKADG; listed as Homo sapiens) [compound 175]”, in the test with HLA-B*44:02, the Peptide exchange result is reported as ““++” (>20% = ++)”. Still for that read-out and setting: under “196 (REMPGGPVW; listed as Homo sapiens) [compound 196]” stands ““+++” (>50 = +++)”; under “203 (IEHSTQAQDTL; listed as Homo sapiens) [compound 203]”, ““++” (>20% = ++)”; under “197 (AEVLLPRLV; listed as Homo sapiens) [compound 197]”, ““+++” (>50 = +++)”. The same measure, in the same setting: under “415 (REEDAALFKAW; listed as Homo sapiens) [compound 415]” stands ““+++” (>50 = +++)”; under “195 (AEDKRHYSV; listed as Homo sapiens) [compound 195]”, ““++” (>20% = ++)”; under “417 (AEHFSMIRA; listed as Homo sapiens) [compound 417]”, ““++” (>20% = ++)”.

As to “54 (AEITITTQTGY; listed as Homo sapiens) [compound 54]”, in the test with HLA-B*44:02, the Peptide exchange result is reported as ““+++” (>50 = +++)”.

For “409 (REFVLSKGDAGL; listed as Homo sapiens) [compound 409]”, the Peptide exchange result in the test with HLA-B*44:02 was ““+++” (>50 = +++)”.

“200 (AESIPTVSF; listed as Homo sapiens) [compound 200]”: in the test with HLA-B*44:02, the Peptide exchange result is reported as ““+++” (>50 = +++)”. Same read-out and setting: next, “414 (EDAALFKAW; listed as Homo sapiens) [compound 414]”: ““++” (>20% = ++)”. On the same count and under the same terms, next, “186 (REGPEEPGL; listed as Homo sapiens) [compound 186]”: ““++” (>20% = ++)”.

For the substance “191 (EEDAALFKAW; listed as Homo sapiens) [compound 191]”, the Peptide exchange result in the test with HLA-B*44:02 is ““+++” (>50 = +++)”. On the same count and under the same terms, next, “174 (AEATARLNVF; listed as Homo sapiens) [compound 174]”: ““++++” (>75% = ++++)”. Regarding “420 (FESHSTVSA; listed as Homo sapiens) [compound 420]”, in the test with HLA-B*44:02, the Peptide exchange entry is listed as ““+” (>10% = +)”. On the same count and under the same terms, under “58 (GEMEQKQL; listed as Homo sapiens) [compound 58]” stands ““++” (>20% = ++)”; under “198 (QEAARAAL; listed as Homo sapiens) [compound 198]”, ““++” (>20% = ++)”. The same measure, in the same setting: under “193 (LEAQQEAL; listed as Homo sapiens) [compound 193]” stands ““++” (>20% = ++)”. On the same count and under the same terms, next, “405 (NEIWTHSY; listed as Homo sapiens) [compound 405]”: ““+” (>10% = +)”. Regarding “423 (SEVPTGTTA; listed as Homo sapiens) [compound 423]”, the Peptide exchange result in the test with HLA-B*44:02 was ““++” (>20% = ++)”. For the substance “206 (SESVTSRTSY; listed as Homo sapiens) [compound 206]”, in the test with HLA-B*44:02, the Peptide exchange result is listed as ““+++” (>50 = +++)”. As to “212 (MEQKQLQKRF; listed as Homo sapiens) [compound 212]”, the Peptide exchange entry with HLA-B*44:02 was ““+++” (>50 = +++)”.

On to “188 (AEFAKKQPWW; listed as Homo sapiens) [compound 188]”, for which, in the test with HLA-B*44:02, the Peptide exchange entry is given as ““+++” (>50 = +++)”. Still for that read-out and setting: under “397 (REGDTVQLL; listed as Homo sapiens) [compound 397]” stands ““++” (>20% = ++)”; under “433 (SDSQVRAF; listed as Homo sapiens) [compound 433]”, ““+” (>10% = +)”; under “189 (KEFLFNMY; listed as Homo sapiens) [compound 189]”, ““++” (>20% = ++)”. For “210 (VEAADIFQNF; listed as Homo sapiens) [compound 210]”, the Peptide exchange result with HLA-B*44:02 is ““+++” (>50 = +++)”. Take “411 (LELPPILVY; listed as Homo sapiens) [compound 411]”: the Peptide exchange entry with HLA-B*44:02 was ““+” (>10% = +)”. The same measure, in the same setting: under “437 (TEAVVTNEL; listed as Homo sapiens) [compound 437]” stands ““++” (>20% = ++)”; under “176 (AEIEPKADGSW; listed as Homo sapiens) [compound 176]”, ““+++” (>50 = +++)”; under “215 (SEDGLPEGIHL; listed as Homo sapiens) [compound 215]”, ““++” (>20% = ++)”.

On to “182 (KEATEAQSL; listed as Homo sapiens) [compound 182]”, for which, in the test with HLA-B*44:02, the Peptide exchange entry is ““+++” (>50 = +++)”. On the same count and under the same terms, next, “192 (YEFKFPNRL; listed as Homo sapiens) [compound 192]”: ““+++” (>50 = +++)”; “183 (YEKGIMQKV; listed as Homo sapiens) [compound 183]”: ““++” (>20% = ++)”. On the same count and under the same terms, under “436 (REPGDIFSEL; listed as Homo sapiens) [compound 436]” stands ““++” (>20% = ++)”; under “422 (SETTFSLIF; listed as Homo sapiens) [compound 422]”, ““+++” (>50 = +++)”; under “204 (RETSTSEETSL; listed as Homo sapiens) [compound 204]”, ““+++” (>50 = +++)”. Still for that read-out and setting: next, “180 (REAGDEFELRY; listed as Homo sapiens) [compound 180]”: ““++” (>20% = ++)”. “406 (EDGRLVIEF; listed as Homo sapiens) [compound 406]”: in the test with HLA-B*44:02, the Peptide exchange result was ““+” (>10% = +)”. Same read-out and setting: under “424 (TEFPLFSAA; listed as Homo sapiens) [compound 424]” stands ““+” (>10% = +)”.
